Experimental data taken from PMC10397247.

Tests used:
Test in all cases: two-hybrid library CCNG1;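 further: natural log of median RNA to DNA barcode read ratio; higher means stronger binding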
4H619-bH = target: T1, 4H619-bH
T1 chain: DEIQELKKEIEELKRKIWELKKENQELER

4H40-bH = target: T2, 4H40-bH
T2 chain: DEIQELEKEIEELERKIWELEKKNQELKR

4H2717-bH = target: T3, 4H2717-bH
T3 chain: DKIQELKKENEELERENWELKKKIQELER

4H2503-bH = target: T4, 4H2503-bH
T4 chain: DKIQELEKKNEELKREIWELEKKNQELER

4H2473-bH = target: T5, 4H2473-bH
T5 chain: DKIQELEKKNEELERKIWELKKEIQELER

4H348-bH = target: T6, 4H348-bH
T6 chain: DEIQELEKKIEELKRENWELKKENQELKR

4H3277-bH = target: T7, 4H3277-bH
T7 chain: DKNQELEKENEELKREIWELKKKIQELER

4H3057-bH = target: T8, 4H3057-bH
T8 chain: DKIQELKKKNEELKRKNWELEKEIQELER

4H319-bH = target: T9, 4H319-bH
T9 chain: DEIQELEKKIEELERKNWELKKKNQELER

4H741-bH = target: T10, 4H741-bH
T10 chain: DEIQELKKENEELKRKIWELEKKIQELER

4H2915-bH = target: T11, 4H2915-bH
T11 chain: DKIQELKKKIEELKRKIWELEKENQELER

4H2692-bH = target: T12, 4H2692-bH
T12 chain: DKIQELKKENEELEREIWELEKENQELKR

4H2588-bH = target: T13, 4H2588-bH
T13 chain: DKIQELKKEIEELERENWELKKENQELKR

4H492-bH = target: T14, 4H492-bH
T14 chain: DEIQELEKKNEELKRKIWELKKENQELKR

4H477-bH = target: T15, 4H477-bH
T15 chain: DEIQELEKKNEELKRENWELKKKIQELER

4H2839-bH = target: T16, 4H2839-bH
T16 chain: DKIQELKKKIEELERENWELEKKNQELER

4H3843-bA = target: T17, 4H3843-bA
T17 chain: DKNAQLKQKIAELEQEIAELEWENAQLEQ

4H2729-bA = target: T18, 4H2729-bA
T18 chain: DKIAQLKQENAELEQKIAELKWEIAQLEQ

4H2576-bA = target: T19, 4H2576-bA
T19 chain: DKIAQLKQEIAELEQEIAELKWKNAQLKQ

4H607-bA = target: T20, 4H607-bA
T20 chain: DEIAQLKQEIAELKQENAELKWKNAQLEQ

4H3782-bA = target: T21, 4H3782-bA
T21 chain: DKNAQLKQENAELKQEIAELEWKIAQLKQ

4H754-bA = target: T22, 4H754-bA
T22 chain: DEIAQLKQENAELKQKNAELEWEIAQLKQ

4H72-bA = target: T23, 4H72-bA
T23 chain: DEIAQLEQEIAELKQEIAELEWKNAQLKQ

4H331-bA = target: T24, 4H331-bA
T24 chain: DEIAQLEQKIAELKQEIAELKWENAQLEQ

4H3057-bA = target: T25, 4H3057-bA
T25 chain: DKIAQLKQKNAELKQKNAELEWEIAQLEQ

4H4001-bA = target: T26, 4H4001-bA
T26 chain: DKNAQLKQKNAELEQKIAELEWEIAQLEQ

4H3112-bA = target: T27, 4H3112-bA
T27 chain: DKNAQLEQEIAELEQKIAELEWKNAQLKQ

4H2610-bA = target: T28, 4H2610-bA
T28 chain: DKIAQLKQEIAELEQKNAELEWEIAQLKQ

4H2717-bA = target: T29, 4H2717-bA
T29 chain: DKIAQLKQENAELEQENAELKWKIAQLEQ

4H908-bA = target: T30, 4H908-bA
T30 chain: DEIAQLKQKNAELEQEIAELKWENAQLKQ

4H717-bA = target: T31, 4H717-bA
T31 chain: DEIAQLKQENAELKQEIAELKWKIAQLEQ

4H2760-bN = target: T32, 4H2760-bN
T32 chain: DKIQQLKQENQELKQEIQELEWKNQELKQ

4H918-bA = target: T33, 4H918-bA
T33 chain: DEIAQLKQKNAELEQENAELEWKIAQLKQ

4H568-bA = target: T34, 4H568-bA
T34 chain: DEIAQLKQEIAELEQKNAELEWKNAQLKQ

4H3427-bA = target: T35, 4H3427-bA
T35 chain: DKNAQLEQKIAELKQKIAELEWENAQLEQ

4H953-bA = target: T36, 4H953-bA
T36 chain: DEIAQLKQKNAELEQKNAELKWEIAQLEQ

4H3189-bA = target: T37, 4H3189-bA
T37 chain: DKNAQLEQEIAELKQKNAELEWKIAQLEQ

4H3354-bA = target: T38, 4H3354-bA
T38 chain: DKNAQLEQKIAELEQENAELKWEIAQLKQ

4H3606-bA = target: T39, 4H3606-bA
T39 chain: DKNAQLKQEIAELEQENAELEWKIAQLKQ

4H687-bA = target: T40, 4H687-bA
T40 chain: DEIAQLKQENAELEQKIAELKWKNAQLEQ

4H338-bA = target: T41, 4H338-bA
T41 chain: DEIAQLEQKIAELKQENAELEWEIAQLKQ

4H2667-bA = target: T42, 4H2667-bA
T42 chain: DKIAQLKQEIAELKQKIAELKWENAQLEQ

4H3855-bA = target: T43, 4H3855-bA
T43 chain: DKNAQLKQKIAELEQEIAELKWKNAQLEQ

4H3185-bA = target: T44, 4H3185-bA
T44 chain: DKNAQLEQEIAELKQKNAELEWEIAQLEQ

4H454-bA = target: T45, 4H454-bA
T45 chain: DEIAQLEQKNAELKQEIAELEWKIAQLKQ

4H370-bA = target: T46, 4H370-bA
T46 chain: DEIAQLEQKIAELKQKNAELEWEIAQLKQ

4H797-bA = target: T47, 4H797-bA
T47 chain: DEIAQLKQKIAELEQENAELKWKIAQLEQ

4H462-bA = target: T48, 4H462-bA
T48 chain: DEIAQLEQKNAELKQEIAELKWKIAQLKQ

4H2697-bA = target: T49, 4H2697-bA
T49 chain: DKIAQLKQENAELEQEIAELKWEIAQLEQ

4H883-bA = target: T50, 4H883-bA
T50 chain: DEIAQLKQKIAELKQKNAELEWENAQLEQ

4H2618-bA = target: T51, 4H2618-bA
T51 chain: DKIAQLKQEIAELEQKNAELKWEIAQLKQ

4H967-bA = target: T52, 4H967-bA
T52 chain: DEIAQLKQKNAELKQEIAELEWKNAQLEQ

DKIQELEKKNEELERKIWELKKEIQELER [4H2473-bH] gave an interaction score (4H619-bH) of -2.35, an interaction score (4H40-bH) of -0.286 and an interaction score (4H2717-bH) of -0.241. It also gave an interaction score (4H2503-bH) of 0.0804, an interaction score (4H2473-bH) of 1.05 and an interaction score (4H348-bH) of -0.545. It also gave an interaction score (4H3277-bH) of -0.651, an interaction score (4H3057-bH) of 0.309 and an interaction score (4H319-bH) of -1.01. The interaction score (4H741-bH) was -0.491, the interaction score (4H2915-bH) was 0.134 and the interaction score (4H2692-bH) was 0.549. For the same binder, the interaction score (4H2588-bH) was -0.165, the interaction score (4H492-bH) was 0.0302 and the interaction score (4H477-bH) was -1.42. It also gave an interaction score (4H2839-bH) of -0.0772.

For DKIAQLKQEIAELEQEIAELKWKNAQLKQ [4H2576-bA], the interaction score (4H3843-bA) was 2.1, the interaction score (4H2729-bA) was 1.22 and the interaction score (4H2576-bA) was 1.66. The interaction score (4H607-bA) was -0.213, the interaction score (4H3782-bA) was 0.345 and the interaction score (4H754-bA) was -0.459. The interaction score (4H72-bA) was 1.49, the interaction score (4H331-bA) was 1.26 and the interaction score (4H3057-bA) was 1.74. For the same binder, the interaction score (4H4001-bA) was 1.77, the interaction score (4H3112-bA) was 0.265 and the interaction score (4H2610-bA) was -0.116. The interaction score (4H2717-bA) was -1.39, the interaction score (4H908-bA) was 0.163 and the interaction score (4H717-bA) was -1.01. It also gave an interaction score (4H2760-bN) of 0.547, an interaction score (4H918-bA) of -0.646 and an interaction score (4H568-bA) of -0.232. It also gave an interaction score (4H3427-bA) of 1.64, an interaction score (4H953-bA) of 0.283 and an interaction score (4H3189-bA) of -0.652. The interaction score (4H3354-bA) was -0.69, the interaction score (4H3606-bA) was -0.614 and the interaction score (4H687-bA) was -0.678. For the same binder, the interaction score (4H338-bA) was 0.28, the interaction score (4H2667-bA) was 0.89 and the interaction score (4H3855-bA) was 0.525. For the same binder, the interaction score (4H3185-bA) was -1.6, the interaction score (4H454-bA) was 0.611 and the interaction score (4H370-bA) was 1.32. The interaction score (4H797-bA) was -0.381, the interaction score (4H462-bA) was 0.799 and the interaction score (4H2697-bA) was 0.599. It also gave an interaction score (4H883-bA) of 0.662, an interaction score (4H2618-bA) of -0.0165 and an interaction score (4H967-bA) of 1.25.
